“And” between values parts separate entries of the source, which are not always exact repeats. Identical values can stand only once.

The conditions of the data set: Oryctolagus cuniculus, pH 8, CD, Tris_HCl 10 mM; for denaturant midpoint (higher = more stable) / unfolding free energy: 25 °C, GdnHCl, reversible: Yes; for unfolding free energy: transition: 3; for Tm / change of melting temperature, mutant - wild type (higher = more stable): Thermal, reversible: No.

Chain of Creatine kinase M-type D122A, P00563 (P00563 whole entry D122A): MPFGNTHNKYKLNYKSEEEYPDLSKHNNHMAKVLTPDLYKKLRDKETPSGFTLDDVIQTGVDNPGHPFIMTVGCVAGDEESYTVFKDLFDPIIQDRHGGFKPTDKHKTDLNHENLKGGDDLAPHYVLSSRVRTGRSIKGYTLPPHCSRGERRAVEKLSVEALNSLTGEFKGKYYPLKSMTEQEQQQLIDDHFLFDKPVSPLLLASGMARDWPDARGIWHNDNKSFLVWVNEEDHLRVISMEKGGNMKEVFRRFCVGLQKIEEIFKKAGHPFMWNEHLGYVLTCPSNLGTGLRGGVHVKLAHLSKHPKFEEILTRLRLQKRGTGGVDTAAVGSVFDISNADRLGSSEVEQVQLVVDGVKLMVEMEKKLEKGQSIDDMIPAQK
Chain of Creatine kinase M-type D122N, P00563 (P00563 whole entry D122N): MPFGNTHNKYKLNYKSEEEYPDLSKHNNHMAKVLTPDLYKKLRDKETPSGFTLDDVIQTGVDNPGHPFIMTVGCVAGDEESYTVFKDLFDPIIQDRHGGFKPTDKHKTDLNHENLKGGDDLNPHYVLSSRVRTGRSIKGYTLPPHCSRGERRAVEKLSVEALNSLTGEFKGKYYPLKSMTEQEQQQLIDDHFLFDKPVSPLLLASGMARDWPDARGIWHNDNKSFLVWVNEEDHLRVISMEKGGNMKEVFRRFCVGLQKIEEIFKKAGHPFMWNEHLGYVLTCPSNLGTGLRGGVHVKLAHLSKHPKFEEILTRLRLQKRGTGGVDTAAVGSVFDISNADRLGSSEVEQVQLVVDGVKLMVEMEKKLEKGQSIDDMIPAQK
Chain of Creatine kinase M-type wild type, P00563 (P00563 whole entry): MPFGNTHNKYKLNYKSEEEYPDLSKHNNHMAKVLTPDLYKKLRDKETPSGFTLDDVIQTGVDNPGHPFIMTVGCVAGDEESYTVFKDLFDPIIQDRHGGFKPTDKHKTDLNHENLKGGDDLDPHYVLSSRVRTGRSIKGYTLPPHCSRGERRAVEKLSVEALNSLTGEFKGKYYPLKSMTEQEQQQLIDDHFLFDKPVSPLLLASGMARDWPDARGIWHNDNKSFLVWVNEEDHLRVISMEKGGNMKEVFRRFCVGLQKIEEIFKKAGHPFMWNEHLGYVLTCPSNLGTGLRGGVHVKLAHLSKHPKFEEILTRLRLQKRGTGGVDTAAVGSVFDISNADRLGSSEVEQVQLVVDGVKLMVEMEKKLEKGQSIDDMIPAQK

The term Tm denotes the temperature at the midpoint of the melting transition. Turning to Creatine kinase M-type D122A, P00563, for the setting “structure 2CRK”, the “denaturant midpoint (higher = more stable)” value is 0.24 M; the unfolding free energy was determined as 3.59 kcal/mol; the Tm was found to be 59.1 °C; the “change of melting temperature, mutant - wild type (higher = more stable)” value was 0 °C.

As for Creatine kinase M-type D122N, P00563, for the setting “structure 2CRK”, the “denaturant midpoint (higher = more stable)” value turned out to be 0.29 M; the unfolding free energy is 3.59 kcal/mol and 2.87 kcal/mol; the midpoint of thermal melting (Tm) was determined as 61.2 °C; the “change of melting temperature, mutant - wild type (higher = more stable)” value came to 2.1 °C.

As to “Creatine kinase M-type wild type, P00563”, the unfolding free energy was 3.59 kcal/mol and 4.06 kcal/mol; the midpoint of thermal melting (Tm) is 59.1 °C.

For the origin of these results see FireProtDB (doi:10.1016/j.ijbiomac.2008.12.016).
